Where a chain is given by its changes, count along the chain named. No end group written: not given here.
T1: biotinylated cyclic ECL2 peptide of C5aR1 (human, also: biotinylated, position not given here, cyclic, way of cyclisation not given here)
T1 peptide: RVVREEYFPPKVLC

T2: biotinylated N-terminal peptide of C5aR1 with tyrosine sulfation (human, tyrosine sulfation (the sulfated tyrosines of C5aR1 are Y11 and Y14); biotinylated)
T2 construct: also called Sulfated N-terminal
T2 peptide: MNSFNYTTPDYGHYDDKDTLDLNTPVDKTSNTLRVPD

T3: biotinylated N-terminal peptide of C5aR1 without tyrosine sulfation (human, biotinylated)
T3 construct: also called Non-sulfated N-terminal
T3 peptide: T2 peptide

B1: Clone_184 (antibody, V domains shown)
VH: QVQLQQSGAELVKPGASVKISCKASGYAFSRYWMNWVKQRPGKGLEWIGQIYPGDGDTKYNGKFKGKATLTADKSSSTAYMQLNSLTSEDSAVYFCTRSLGVWGTGTTVTVSS
VL: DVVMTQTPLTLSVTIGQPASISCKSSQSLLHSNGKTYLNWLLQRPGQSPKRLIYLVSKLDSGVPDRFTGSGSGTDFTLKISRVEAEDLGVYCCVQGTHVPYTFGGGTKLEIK
B2: Clone_583 (antibody, V domains shown)
VH: EVQLVESGGGLVKPGGSLKLSCAASGFTFNAYAMSWVRQTPEKRLEWVASISTGGNTYCPDSVKDRFTVSRDNVRNILYLQMSSLRSEDTAMYYCTRGYQRFSGFAYWGQGTLVTVS
VL: DVVMTQTPLSPPVSLGYQASISCRSSQSLVHSNGNTYLNWYLQKPGQSPKLLIYKVSNRLSGVPDRFSGSGSGTDFTLKISRVETEDLGVYFCSQSTHVPYTFGGGTKLEIK
notes: also called Ab583; mAb583
B3: Clone_402 (antibody, V domains shown)
VH: QIQLVQSGPELKKPGETVKISCKASGYTFTTFGMSWVKQAPGKGLKWMGWINTNSGMPTYTDDFRGRFAFSLETSASTAYLQISSLKNEDTATYFCARKSLFYWGQGTTLTVSS
VL: DVVMTQSPLTLSVTIGQPASISCRSSRSLLDSDGKTKLHWLLQRPGQSPKSLIYLVSKLDSGVPNRFTGGGSGTDFTLKINRVEAEDLGVYYCWQGTHFPWTFGVGTKLEIK
B4: Clone_66 (antibody, V domains shown)
VH: QVQLQQSDAELVKPGASVKISCKASGYTFIDHAIHWVKQRPEQGLEWIGYISPGNGEIKYNEKFKAKATLTADKSSSAAYMQLNSLTSADSAVYFCKRALFYYTGKYQPMDYWGQGTTVTDSS
VL: DIVMTQSQKFMSTTAGDRVSITCKASQNVGSAVVWYQQKPGRSPKLLIYSSSIRYTGVPDRFTGSGSGTDFTLTINSVQSEDLADYFCQQYNSFPLTFGAGTKLEIK
notes: also called Ab66; mab 66
B5: Clone_511 (antibody, V domains shown)
VH: QVQLQQSGAELAKPGASVKLSCKTSGYTFTNYWMHWIKQRPGLGLEWIGYINPSGDYTKHNQKFKDKATLTADRSSSTAYMQLSSLTYEDSAVYYCARVPLSYGSGNGPYYFDYWGQGTTLTVSS
VL: DVVMTQTPLSLPVSLGDHASISCRSSQSLVHSNGNIYLHWYLQRPGQSPKLLIHKVSNRFSGVPDRFSGSGSGTDFTLKISRVEAEDVGIYFCSQSTLVPLTFGSGTKLELK
B6: Clone_518 (antibody, V domains shown)
VH: B5 VH
VL: B5 VL with I36T
B7: Clone_588 (antibody, V domains shown)
VH: DVQLQESGPGLVKPSQSLSLTCTVTGYSITSDYAWNWIRQFPGNKLEWMGYISYSGSIRYNPSLKSRISITRDTSKNQFFLQLNSVTTEDTATYYCAITTGGYFDYWGQGTTLTVSS
VL: DIQMTQSTSSLSASLGDRVTISCRASQDISNYLNWYQQTPDGTVKLLIYQISRLHSGVPSRFSGSGSGTDYSLTISNLEEEDIANYFCQQGNSLPPTFGGGTKVEIK
B8: Clone_79 (antibody, V domains shown)
VH: QVQLKESGPGLVAPSQSLSITCTVSGFSLTSYAISWVRQPPGKGLEWLGVIWTGGGTKYNSALKSRLSISKDNSKSHVFLKMNSLQSDDTARYYCARDGDYVYYAMAYWGQGTTVTVSS
VL: B2 VL with P11L, Y17D, N39H, L60F, T77K, T85A, Y101P
notes: also called antibody 79
B9: Clone_429 (antibody, V domains shown)
VH: QVQLQQSGAELAKPGASVKLSCKASGYTFSSYWIHWVKQRPGQGLEWIGYINPRGDYTKYNQKFKDKATLTADKSSSTAFMQLSSLTYEDSAVYYCVRVTGSEGPYYFDYWGQGTTLTVSS
VL: DVVMTQTPLSLPVSLGDQASISCRSSQSLVHSNGNTYLQWYLQKPGQSPKLLIYKVSNRFSGVPDRFSGSGSGTEFTLKIRRVEAEDLGVFLCSQSTLVPLTFGAGTKLELK
B10: Clone_329 (antibody, V domains shown)
VH: QVQLQQSGAELTKPGASVKLSCKASGYTFTNYWMHWVKQRPGQGLEWIGYLNPSSGYTKYNQKFKDKATLTADKSSSTAYMQLNSLTYEDSAVYYCTRSGGDNYGNPYYFDRWGQGTTVTVSS
VL: B9 VL with P12T, Q39H, L51F, E75D, T77R, R81S, F91Y, L92F, L111I
notes: also called Ab329; mAb329
B11: Clone_584 (antibody, V domains shown)
VH: DVQLQESGPDLVKPSQSLSLTCTVTGYSITSGYSWHWIRQSPGNKLEWLAYIHNSGSTNYNPSLKSRISITRDTSKNQFFLKLNSVTTEDTATYYCARSIGDYWGQGTTLAVSS
VL: DVVMTQTPLSLPVSLGDRASISCRSGQSLVHSNGNTYLHWYLQRPGRSPNLLIYKVSNRFSGVPDRFSGSGSGTDFTLKISRVEAEDLGVYFCSQSTHVPWTFGGGTKLEIK
B12: Clone_11_V2 (antibody, V domains shown)
VH: QVQLQQSGPELVKPGASVKISCKASGYSFSSSWMNWVKQRPGKGLEWIGRISPGDGDTRYSGKFKGKATLTADKSSSTAYMQVTSLTSEDSAIYFCVRFLITSTRYVMDYWGQGTTVTVSS
VL: B11 VL with R18Q, G26S, R44K, R47Q, N50K, H98L, W101P
notes: also called Ab11v2
B13: antibody 317 (antibody, V domains shown)
VH: QVQLQQPGAELVMPGASVKLSCKASGYTFTSYWLHWVRQRPGQGLEWIGEIDPSDGYSNHNQKFKGKATLTVDKSSSTAYMQLSSLTSEDSAVYYCATEGFWGQGTTVTVSS
VL: DIVMTQSPSSLSVSAGEKVTMSCKSSQSLLKSGNQKNYLAWHQQKPGQPPKLLIYGASTRESGVPDRFTGSGSGTDFTLTISSVQAEDLAVYYCQNDHSHPYTFGGGTKLEIK
B14: antibody 343 (antibody, V domains shown)
VH: QVQLQQSGAELVKPGASVKLSCKASGYTFTEYTIHWVNQRSGQGLEWIGWFYPGSGSIKYNEKFKDKATLTADKSSHTVYMELSRLTSEDSAVYFCARHGNYYDGSWFAYWGQGTLVTVSA
VL: DVQITQSPSYLAASPGETITINCRASKSISKYLAWYQEKPGKTNKLLIYSGSTLQSGIPSRFSGSGSGTDFTLTISSLEPEDFAMYYCQQHDEYPWTFGGGTKLEIK
B15: Clone_336_V2-1 (antibody, V domains shown)
VH: QVQLKQSGPGLVQSSQSLSITCTVSGFSLISYGVHWVRQSPGKGLEWLGVIWSGGSTDYNAAFKSRLSITKDNSKSQVFFKMNSLQADDTAIYYCAKNSQLGNAMDYWGQGTTVTVSS
VL: DIVMSQSPSSLAVSAGEKVTMSCKSSQSLLSSRTRKNYLAWYQQKPGQSPKLLIYWASTRESGVPDRFTGSGSGTDFTLTISSVQAEDLALYFCNQSYDLLTFGAGTKLEIK
B16: Clone_453 (antibody, V domains shown)
VH: QVQLKQSGPGQVAPSQSLSITCTVSGFSLINSAVHWVRQSPGKGLEWLGVIWSDGSTDYNTAFISRLSISRDNSKSQVFFKMRSLQVDDTAVYYCARNGRLGNAMDYWGQGTSVTVSS
VL: DIVMTQSPSSLAVSVGEKVTMSCKSSQSLFSSRTRKNYLAWYQQKPGQSPKLLIYWASTRESGVPYRFTGSGSGTDFTLTISSVQTEDLAVYYCKQSYNLLTFGAGTKLEL

Target: T1, biotinylated cyclic ECL2 peptide of …
Test: BLI, peptide on streptavidin sensor
Description: (§1) The epitope mapping was undertaken, using biolayer interferometry, on a series of exemplary anti-C5aR1 antibodies generated as described in Example 1. Briefly, for each antibody, biotinylated peptides representing ECL2, the N-terminus with tyrosine sulfation, and the N-terminus without tyrosine sulfation, were immobilized in a streptavidin biosensor. Subsequently, the biosensor was exposed to […] of antibody to detect antibody binding to the immobilized peptide. The results of the epitope mapping study are shown in Table 4 (“+” indicates binding to the listed peptide; “−” indicates lack of binding to the listed peptide).

Row | Binder | binding result
1 | B1 | no binding (tested: 10 gg/mL (so in the source))
2 | B2 | no binding (tested: 10 gg/mL (so in the source))
3 | B3 | no binding (tested: 10 gg/mL (so in the source))
4 | B4 | no binding (tested: 10 gg/mL (so in the source))

Target: T2, biotinylated N-terminal peptide of …
Test: BLI, peptide on streptavidin sensor
Description: as §1

Row | Binder | binding result
5 | B5 | no binding (tested: 10 gg/mL (so in the source))
6 | B6 | no binding (tested: 10 gg/mL (so in the source))
7 | B7 | no binding (tested: 10 gg/mL (so in the source))
8 | B8 | no binding (tested: 10 gg/mL (so in the source))
9 | B9 | no binding (tested: 10 gg/mL (so in the source))
10 | B10 | no binding (tested: 10 gg/mL (so in the source))
11 | B11 | no binding (tested: 10 gg/mL (so in the source))
12 | B12 | no binding (tested: 10 gg/mL (so in the source))
13 | B13 | no binding (tested: 10 gg/mL (so in the source))
14 | B14 | no binding (tested: 10 gg/mL (so in the source))
15 | B15 | no binding (tested: 10 gg/mL (so in the source))
16 | B16 | no binding (tested: 10 gg/mL (so in the source))

Target: T3, biotinylated N-terminal peptide of …
Test: BLI, peptide on streptavidin sensor
Description: as §1

Row | Binder | binding result
17 | B5 | no binding (tested: 10 gg/mL (so in the source))
18 | B6 | no binding (tested: 10 gg/mL (so in the source))
19 | B7 | no binding (tested: 10 gg/mL (so in the source))
20 | B8 | no binding (tested: 10 gg/mL (so in the source))
21 | B9 | no binding (tested: 10 gg/mL (so in the source))
22 | B10 | no binding (tested: 10 gg/mL (so in the source))
23 | B11 | no binding (tested: 10 gg/mL (so in the source))
24 | B12 | no binding (tested: 10 gg/mL (so in the source))
25 | B13 | no binding (tested: 10 gg/mL (so in the source))
26 | B14 | no binding (tested: 10 gg/mL (so in the source))
27 | B15 | no binding (tested: 10 gg/mL (so in the source))
28 | B16 | no binding (tested: 10 gg/mL (so in the source))

Source: US20240076398A1 (VISTERRA, published 2024)
